# In the supplement of paper PMC9170038:
# System: MS2 coat protein
# Assay: apparent KD of MS2 coat protein; higher = weaker reporter binding
# Settings: Eterna round: R107; input ligand: theophylline 2 mM
# Procedure, shortened: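 Designed RNA switches, transcribed on-chip from Illumina sequencing clusters, were titrated with SNAP-549-labelled MS2 coat protein from 0.7 or 1.5 nM to 3 µM in twofold steps. The solution was 100 mM Tris-HCl pH 7.5, 80 mM KCl, 4 mM MgCl2, with constant ligand or without it. Apparent KD is the median over each design's normalised cluster binding-curve fits.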
row,Sequence,apparent KD of MS2 coat protein [nM]
1,CGCAACCAACAUGAGGAUCACCCAUGUGAAGGAGCGCCGAAUAAGGCAGGUAGGUCGCACAUGAAUAAAUCAUGAAGGAAGCGAA [XArg-A 12 NuPack],51.2
2,GAGUUGUGCUCAGGCCCGACUCGCUGAGAAGGAGCGCACUAAGGUGCAGGUAGGUCGCUCAGGAAUACAUGAGGAUCACCCAUGU [Erlaatti],28.5
3,UUCUUUAAGUCGGCCGCCACUGAAACAUGAGGAUCACCCAUGUAAAUUUGGGAGUAGGUAUAUUACAGGACCGGGACUAUAGUAA [JR_ExcTryptoB_Sub021],27.3
4,GCAUCCUAGUCGGCCGCCACUGCGAAUAGGUCCUGAGUGAUCUAACAUGAGGAUCACCCAUGUAGCAGGACCGGGACUAGGAUGC [(Trp1)-(TM)''-(TM)'-(Ms2)-(Trp2)_Design5],23
5,AGUACUCGAACGGAUACCAGCCGGACAUGAGGAUCACCCAUGUCCUACCAUUGUUCGGUUGGCCCUUGGCAGCCGUUCGUGUACA [Omei Theo B SS A v4],26.7
6,GGUGACUGCAUGUGGAAUUAAGGUAGGGAAGGAGCGCGGUAAGACGCAGGUAGGUCGCCCUACAUGAGGAUCACCCAUGUGGUGU [Beenmaer],500
7,GAGUAGAGGACGGCCGCCACUGAACAUGAGGAUCACCCAUGUCGUGAUCCGUUACCUAGGGUAGAUAGGACCGGGUCAUGUACUC [Exclusion Tryptophan B GF 18],56.7
8,AGCCACUCGAGUGAUCCUCACGAGUGGCUACGAGGACCGGUACGGCCGCCACUCGAAUUAACAUGAGGAUCACCCAUGUAAUCUC [Brourdmod06],344
9,UCGCUCUGGGUGGGAUCCGGAGAUGUGGAAGGAGCGCUGGAAACAGCAGGUAGGUCGCCAACGGACAUGAGGAUCACCCAUGUAC [Same State - Arginine A (Freestyle 18)],37.7

# Same assay, conditions: Eterna round: R107; input ligand: tryptophan 2.4 mM
row,Sequence,apparent KD of MS2 coat protein [nM]
1,GGUGGCUCCAUCGAUACCAGCCACCACCGAUAGACCACAUGAGGAUCACCCAUGUUGGGUGGCCCUUGGCAGCGGUGAAGCUGCC [#1 Same State - Theophylline B Attempt #4 (HarryS)],657
2,GACAGAAACUGAAGGAGCGAGGUAAAACGGGAUGAGCAAACAUGAGGAUCACCCAUGUGGCCUCAGGUAGGUCGCAGAAAGAAAC [Exclusion Arginine B GF24],135
3,GCACCAGGUACGGAUACCAGCUAUAGGCCCAAUGGGCGACAUGAGGAUCACCCAUGUGAUGGCCCUUGGCAGCUGUACCUGGUGC [SSThB NP+V+V2 #9],218
4,AACUAAUCACAUGAGGAUCACCCAUGUGAUACCAGCUAAUCCCAAAGCCCUUGGCAGCACCUUUGGGUCCCGGUGUGUUUGAACA [Onceesa],9.33
5,UGGCGAGAAGGAAGGAGCGUCAGCUGAGUUACAUGAGGAUCACCCAUGUUGCACAUAGUGUGACAGGUAGGUCGCCUUCUGCCCU [SS-ArgB19],37.6
6,UUUUUUUUGGGAAGGAGCGGGAACAUGUGGAUCUCCCAUGUACAUGAGGAUCACCCAUGUACCCAGGUAGGUCGCCCAUUUUUUU [Exclusion - Arginine B],66.2
7,ACAUGAGGAUCACCCAUGUUCCUCAUUGAUACCAGUGAAUUUAGACGCCCUUGGCAGCGAGUUUAAGAAGAAGAAGUUUUUUUUU [6.C],875
8,UAUAUGGUGAUGGAUACCAGCAGAGAAAACGUUUAUCCUAACAUGAGGAUCACCCAUGUAUGCCCUUGGCAGCUGUUGUUAUAUA [8.M],35.2
9,CGUGGUGGGACGGAUACCAGCCACCGCGGCAACGCAACAUGAGGAUCACCCAUGUUGGGUGGCCCUUGGCAGCUGUGCUGCGACG [#1 Same State - Theophylline B Attempt #28 (HarryS)],95.2
10,UAACAUGAGGAUCACCCAUGUUUGGAGAAACGAGGACCGGUACGGCCGCCACUCGAGGAGUGGAUGAGAAGUGGGAUAGAGUGAU [Same State Trp A GF6],15.1
11,AGCAAGCAACAUGAGGAUCACCCAUGUGAAGGAGCGCCGAAUAAGGCAGGUAGGUCGCACAUGAAUAAAUCAUGUAAAAGCUUGC [MAT - Exclusion Arginine A - Mod of Eli - D23],138
12,AAUAACAUGAGGAUCACCCAUGUAAGUGGGCGAGGACCGGUACGGCCGCCACUCGGAUGAUGUUGACGAAAAGUCAGCAUCAUCA [#OpenEnded 2 #GuTurnoff #Tail],55.1
13,AAUGGUGGAACGAAGUACAGGAGUACAAAUCGAGGACCGGUACGGCCGCCACUCGCGAAAGAACAUGAGGAUCACCCAUGUAAAA [theeternabot_exclusion_MS2_Trp_A_34],11.1
14,UUUUAAAGCAUGGCGUAUCGGAAAACCGAUACCAGUACAGAAAUGUACCCUUGGCAGCGGAAUUUUACAUGAGGAUCACCCAUGU [Ex Theophylline A 1],12.7
15,CCGCCCUACCGCGAUACCAGUACGGCAGUUAACAUGAGGAUCACCCAUGUGCAAACAUAAUACCCUUGGCAGCGCCUGAAUCCAU [theeternabot_sameState_MS2_Theo_B_12],15.6
16,AAUCAUGGAAACAUGACAUGAGGGUUGCUCCGAGGACCGGUACGGCCGCCACUCGCGAGGAGGCGGACAUGAGGAUCACCCAUGU [#05 Tryptophan A Same State],68.2
17,UUAAUCAUAUUAGAAAACUAAUAUGCAGAAGGAGCGUGAUAAAACACAGGUAGGUCGCUGAAGGGAACAUGAGGAUCACCCAUGU [AstrosSSArgA#8],26
18,CGGUCGGUCGGCCGGUGAUUAUGGGAUGAAGGAGCGUGGGAAGCUACAGGUAGGUCGCAUCCGAACCAUGAGGAUCACCCAUGGU [SSArg A #23Alt-Ms2 Mod],21.7
19,CACAUGAGGAUCACCCAUGUCUGAACUGAAGGAGCGCUAAACAAGGCAGGUAGGUCGCGGAAUCCUGUGUGCAUAUGCACACGGG [9.W],21.5
20,GUAUGGAAACAUACUAGGGUAUCAUGAGAUACCAGUACAGAAAUGUACCCUUGGCAGCUCAAGCAUACAUGAGGAUCACCCAUGU [Ex Theophylline A 7],15.8
21,UUAUAUAUACAUGAGGAUCACCCAUGUGAUACCAGCCUGGAAACAGGCCCUUGGCAGCACAAAUACUCCAGAAAAUAUAAUAAAU [MAT - Exclusion Theophlline A - Mod of Eli - D4],27.8
22,AAAACACAUGAGGAUCACCCAUGUCGUGAUACCAGUCAACAUGAGGACCCUUGGCAGCAUAAAAUGGGUAACAUGAGGAUAACCC [AstrosEXyTheA#3],101
23,GGCCUAGCGAGCGCUCGCUAGGCCGCGGAUACCAGCGAGGUCCAUCGCCCUUGGCAGCCGAACAUGAGGAUCACCCAUGUCGGUA [#1 Same State - Theophylline A Attempt #15 (HarryS)],9.68
24,CGCAACCAACAUGAGGAUCACCCAUGUGAAGGAGCGCCGAAUAAGGCAGGUAGGUCGCACAUGAAUAAAUCAUGAAGGAAGCGAA [XArg-A 12 NuPack],31.5
25,GAGUUGUGCUCAGGCCCGACUCGCUGAGAAGGAGCGCACUAAGGUGCAGGUAGGUCGCUCAGGAAUACAUGAGGAUCACCCAUGU [Erlaatti],25.2
26,GCAUCCUAGUCGGCCGCCACUGCGAAUAGGUCCUGAGUGAUCUAACAUGAGGAUCACCCAUGUAGCAGGACCGGGACUAGGAUGC [(Trp1)-(TM)''-(TM)'-(Ms2)-(Trp2)_Design5],17.3
27,CAUACUUUAGUAUGACGUGUGGGCAGUGAUACCAGAUACGAAAGUAUCCCUUGGCAGCACAACAUGAGGAUCACCCAUGUAAUUA [Theophylline A 1],23.1
28,AGUACUCGAACGGAUACCAGCCGGACAUGAGGAUCACCCAUGUCCUACCAUUGUUCGGUUGGCCCUUGGCAGCCGUUCGUGUACA [Omei Theo B SS A v4],591
29,GGUGACUGCAUGUGGAAUUAAGGUAGGGAAGGAGCGCGGUAAGACGCAGGUAGGUCGCCCUACAUGAGGAUCACCCAUGUGGUGU [Beenmaer],36.5
30,UCGCUCUGGGUGGGAUCCGGAGAUGUGGAAGGAGCGCUGGAAACAGCAGGUAGGUCGCCAACGGACAUGAGGAUCACCCAUGUAC [Same State - Arginine A (Freestyle 18)],59
